Data on six substances can be found in patent EP0799891A1.

The target in experiment [1] is human Fas antigen on human lymphocyte cell line HPB-ALL (human) (UniProt P25445). Nature of the experiment: cell-based or functional assay.
For experiment [2], the target named is fusion protein consisting of the extracellular region of the human Fas antigen and the extracellular region of the mouse interleukin 3 receptor (encoded by phFas-AIC2) (human; mouse) (UniProt P25445). Nature of the experiment: ELISA; plate coated with COS-1 supernatant holding the human Fas ECD-mouse IL-3 receptor ECD fusion; detection with peroxidase-labelled rat anti-mouse IgM; PBS blank 0.104. For orientation: In an ELISA, binding on a coated surface is turned into a signal by an enzyme label.

Take “CH11 H chain alone, COS-1 culture supernatant of cells transfected with pHEX126”: in experiment [1], the OD590 - OD620 (MTT assay, viable HPB-ALL cells) (OD590 - OD620) turned out to be 0.876. Moreover, the OD405 - OD492 (OD405 - OD492) in experiment [2] was 0.109.

As to “CH11 J chain alone, COS-1 culture supernatant of cells transfected with pJEX004”, in experiment [1], the OD590 - OD620 (MTT assay, viable HPB-ALL cells) (OD590 - OD620) came to 0.883. This substance had an OD405 - OD492 (OD405 - OD492) in experiment [2] of 0.107.

In experiment [1], “CH11 L chain alone, COS-1 culture supernatant of cells transfected with pLEX004” registered an OD590 - OD620 (MTT assay, viable HPB-ALL cells) (OD590 - OD620) of 0.887. For the same substance, in experiment [2], the OD405 - OD492 (OD405 - OD492) turned out to be 0.135.

For “mouse anti-human Fas monoclonal antibody CH11 (IgM), purified from hybridoma culture supernatant”, in experiment [1], the ED50 turned out to be 0.0212 µg/mL. The OD405 - OD492 (OD405 - OD492) in experiment [2] amounted to 0.445.

Turning to “recombinant CH11 H chain + L chain + J chain product in COS-1 culture supernatant [F] (pHEX126, pLEX004 and pJEX004) (antibody)”, in experiment [1], the ED50 amounted to 0.0229 µg/mL and the OD590 - OD620 (MTT assay, viable HPB-ALL cells) (OD590 - OD620) stood at 0.242. The OD405 - OD492 (OD405 - OD492) in experiment [2] came out at 0.202.

Regarding “recombinant CH11 H chain + L chain product in COS-1 culture supernatant [E] (pHEX126 and pLEX004), without J chain (antibody)”, in experiment [1], the ED50 came to 0.0045 µg/mL; the OD590 - OD620 (MTT assay, viable HPB-ALL cells) (OD590 - OD620) came to 0.176; the activity (cytotoxicity, ED50 test) relative to CH11 and supernatant [F] was found to be 5 fold. Besides, the OD405 - OD492 (OD405 - OD492) in experiment [2] was determined as 0.33.
